Laboratory results published in US20250122271A1, “ANTI-DKK1 ANTIBODY, PHARMACEUTICAL COMPOSITION THEREOF, AND USE THEREOF” (SHANGHAI JUNSHI BIOSCIENCES CO., LTD., priority 2022, published 2025).
Where two headings read alike, the source gives them in different places. One block for each molecule: values may come before it.

Assays:
A549 cells = assay: A549 subcutaneous transplantation tumor model in CB17/SCID female mice; type: in vivo
Experimental: The experimental animals were CB17/SCID female mice, and A549 cells (5× 10^6) were subcutaneously inoculated into the mice to establish a subcutaneous transplantation tumor model. […] The groups each had 6 animals, and the animals in all the groups were subjected to intraperitoneal injection. […] The efficacy was evaluated based on tumor growth inhibition (TGI) (FIG. 9).

[1] = system: advanced gynecological cancers; settings: patients with high expression of DKK1, stage 2 clinical; cited from earlier work
[2] = molecular target: T1, human DKK1 antigen (Sino Biological, 10170-H08H) (human, UniProt O94907 32-266); assay: ELISA, coated human DKK1
T1 construct: also called huDKK1; hDKK1
T1 sequence (looked up): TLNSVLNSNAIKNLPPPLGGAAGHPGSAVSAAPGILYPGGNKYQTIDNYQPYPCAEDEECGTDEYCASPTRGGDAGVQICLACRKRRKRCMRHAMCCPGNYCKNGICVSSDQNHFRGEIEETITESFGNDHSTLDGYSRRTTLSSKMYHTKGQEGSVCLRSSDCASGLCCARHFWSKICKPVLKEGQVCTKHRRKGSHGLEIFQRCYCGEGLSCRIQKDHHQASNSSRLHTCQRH
Experimental: (§1) Detection of the binding activity of the chimeric antibodies for human DKK1 by ELISA: After the plate was coated with 2.0 μg/mL human DKK1 antigen (Sino Biological, 10170-H08H) for 90 min and then blocked with 2% BSA for 90 min, the gradiently diluted anti-DKK1 chimeric antibodies and positive control antibody DKN-01 (starting at 1 μg/mL, diluted in a 2.5-fold gradient to 1.64 ng/ml, with a total of 8 concentrations) were added, and the mixture was incubated for 60 min. After the plate was washed, the 5000-fold diluted HRP-conjugated goat anti-human IgG (Fc specific) (Sigma, A0170) secondary antibody was added for incubation, and 0.1 mg/mL TMB (Sigma, T2885) was added for color development. Finally, the reaction was stopped with a 2 M hydrochloric acid solution. The plate was read at 450 nm/620 nm using a Thermo Scientific microplate reader, and the EC50 values of the chimeric antibodies (FIG. 3) were obtained by fitting using a four-parameter logistic regression (4PL) model.

[3] = molecular target: T2, human DKK1 antigen (Sino Biological, 10170-H08H) (human, UniProt O94907 32-266); assay: ELISA blocking of DKK1-LRP6
T2 chain: T1 sequence (looked up)

[4] = molecular target: T2, human DKK1 antigen (Sino Biological, …); assay: ELISA binding; given as IC50
human DKK1 [5] = molecular target: T3, human DKK1 (Homo sapiens, UniProt O94907); assay: Binding of antibodies to human DKK1 by ELISA; settings: chimeric antibodies, compared among each other
T3 construct: purchased Sino Biological 10170-H08H
T3 sequence (O94907 32-266): T1 sequence (looked up)
Experimental: as §1
Detection of the binding of the humanized antibodies to DKK1 by ELISA: The plate was coated with 2.0 μg/mL human DKK1 antigen (Sino Biological, 10170-H08H) for 90 min and then blocked with 2% BSA for 90 min. After the plate was washed, the gradiently diluted anti-DKK1 humanized antibodies (starting at 1 μg/mL, diluted in a 10-fold gradient to 1 ng/ml, with a total of 4 concentrations) were each added, and the mixture was incubated for 60 min. After the plate was further washed, the 5000-fold diluted HRP-conjugated goat anti-human IgG (Fc specific) (Sigma, A0170) secondary antibody was added for incubation for 30 min, and 0.1 mg/mL TMB (Sigma, T2885) was added at 100 μL per well for color development for 10 min. Finally, a 2 M hydrochloric acid solution was added at 50 μL per well to stop the reaction. The plate was read at 450 nm/620 nm using a Thermo Scientific microplate reader. The EC50 values of the humanized antibodies were obtained by fitting using a four-parameter logistic regression (4PL) model.

human DKK1 [6] = molecular target: T3, human DKK1; assay: Luciferase reporter gene assay in 293 TOP cells with Wnt3a and human DKK1 (recovery of Wnt signaling); type: cell-based; settings: screening at protein and cellular level
Experimental: The cellular biological activity of the DKK1 antibodies was tested using target cells 293 TOP overexpressing LRP5/6 and comprising the luciferase reporter system and recombinant Wnt3a (R&D systems, cat #5036-WN), as well as human DKK1 (Sino Biological, cat #10170-H08H) protein. The target cells 293 TOP were placed into a 96-well flat-bottomed white plate (corning, cat #3917) at 50,000 cells per well for incubation overnight. The supernatant was then discarded, and the gradiently diluted antibodies to be tested were each added for pre-incubation at 37° C. for 0.5 h. After the pre-incubation was completed, the diluted Wnt3a (R&D systems, cat #5036-WN) and human DKK1 protein, at working concentrations of 0.05 μg/mL and 0.1 μg/mL, respectively, were added into the mixture containing the cells and antibody for co-incubation at 37° C. for 6-8 h. Finally, the luciferase substrate One-Lite (Vazyme, cat #DD1203-03-AB) was added and the chemiluminescence values of the hybridoma antibodies were measured.
(§2) The cellular biological activity of the hDKK1 chimeric antibodies was tested using target cells 293 TOP overexpressing LRP5/6 and comprising the luciferase reporter system and recombinant Wnt3a (R&D systems, cat #5036-WN), as well as human DKK1 (Sino Biological, cat #10170-H08H) protein.
The target cells 293 TOP were placed into a 96-well flat-bottomed white plate (corning, cat #3917) at 50,000 cells per well for incubation overnight. […] Finally, the luciferase substrate One-Lite (Vazyme, cat #DD1203-03-AB) was added and the chemiluminescence values of the chimeric antibodies were measured (FIGS. 5A-5C).
as §2, with “DKK1” for “hDKK1 chimeric”, “protein. […] Finally, the luciferase substrate One-Lite (Vazyme, cat #DD1203-03-AB) was added and the chemiluminescence values of the humanized antibodies were measured. […]” for “protein.”

[7] = molecular target: T2, human DKK1 antigen (Sino Biological, …); assay: ELISA binding
[8] = molecular target: T2, human DKK1 antigen (Sino Biological, …); assay: ELISA binding
[9] = molecular target: T2, human DKK1 antigen (Sino Biological, …); assay: ELISA blocking of DKK1-LRP6

Molecule: CC(=O)O[C@H]1C(=O)[C@@]2(C)[C@H]([C@H](OC(=O)c3ccccc3)[C@]3(O)C[C@H](OC(=O)[C@H](O)[C@@H](NC(=O)c4ccccc4)c4ccccc4)C(C)=C1C3(C)C)[C@]1(OC(C)=O)CO[C@@H]1C[C@@H]2O [paclitaxel, reference compound]
tumor growth inhibition (TGI) (A549 cells; day 35, paclitaxel 20 mg/kg intraperitoneal twice per week for 4 weeks): 60.48%

Molecule: DKN-01: positive control anti-DKK1 monoclonal antibody; heavy and light chains SEQ ID NO: 108 and SEQ ID NO: 109
tumor growth inhibition (TGI) (A549 cells; day 35 after tumor inoculation, 5 mg/kg intraperitoneal once per week for 4 weeks): 23.27%
disease control rate [1]: 57%
objective remission rate [1]: 14%

B1: chimeric antibody chi-8 (antibody, human IgG4 S228P, kappa, V domains shown)
VH: EVQLQQSGPELVKPGASVKIFCKTSGYTFTENTMHWVKQTHGKSLEWIGGINPHKGGTSYNQKFKGKATLTVDKSSSTACMELRSLTSEDSTVYYCARDWLGAMDYWGQGTSVTVSP
VL: ETTVTQSPASLSMAIGEKVTIRCITSTDIDDDMNWYQQKPGEPPKLLISEGNTLRPGVPSRFSSSGYGTDFVFTIENMLSEDVADYYCLQSDNLPYTFGGGTKLEIKR
notes: hIgG4 heavy constant region and human kappa constant region; also called No. 2 chimeric antibody molecule
binding result [2]: binds
IC50 [3]: 0.309 µg/mL
EC50 [4]: 0.0434 µg/mL

B3: chimeric antibody chi-1 (antibody, human IgG4 S228P, kappa, V domains shown)
VH: EVQLQQSGPELVKPGASVRISCKTSGYTFTEYTMHWVKQSHGKSLEWIGVIDPSNGDTSYNQKFKGRATLTVDKSSSTAYMDLRSLTSEDSALYYCSSTTGPWFACWGQGTLVTVSA
VL: DIQMTQTTSSLSASLGDRVTINCRASQDISNYLNWYQQKPDGTVKLLIYYKSRLHSGVPTRFSGSGSGTDFSLTISNLVQEDIATYFCQQVHTLPPTFGGGTKLEIKR
notes: hIgG4 heavy constant region and human kappa constant region; also called No. 1 chimeric antibody molecule
binding result [2]: binds
IC50 [3]: 0.355 µg/mL
EC50 [4]: 0.0238 µg/mL

More lines, now with the values ahead:

relative binding activity for human DKK1 (ELISA) (human DKK1 [5]): superior activity
in vitro activity in the screening of the chimeric antibodies of Example 4 (human DKK1 [6]): best in vitro activity
B2: chi-8: chimeric antibody 2VH+2VL (SEQ ID NO: 39/40) (antibody, V domains shown)
VH: MGWSWIFLFLLSGTAGVLSEVQLQQSGPELVKPGASVKIFCKTSGYTFTENTMHWVKQTHGKSLEWIGGINPHKGGTSYNQKFKGKATLTVDKSSSTACMELRSLTSEDSTVYYCARDWLGAMDYWGQGTSVTVSP
VL: MFSLALLLSLLLLCVSDSRAETTVTQSPASLSMAIGEKVTIRCITSTDIDDDMNWYQQKPGEPPKLLISEGNTLRPGVPSRFSSSGYGTDFVFTIENMLSEDVADYYCLQSDNLPYTFGGGTKLEIK

relative binding activity for human DKK1 (ELISA) (human DKK1 [5]): superior activity
in vitro activity in the screening of the chimeric antibodies of Example 4 (human DKK1 [6]): best in vitro activity
B4: chi-15: chimeric antibody 3VH+3VL (SEQ ID NO: 41/42) (antibody, V domains shown)
VH: MGWNCFILFLVATATGVHSQVQLQQPGAELVKPGASVKMSCKASGYTFTSYNMLWVKQTPGQGLEWIGVIFPGNGDTSYNPKFKGKAALTADKSSSTAYMQLSSLTSEDSAVYYCARDGYPSMDYWGQGTSVTVSS
VL: MLSLAPLLSLLLLCVSDSRAETIVTQSPASLSVATGEKVTIRCITSTDIDDDMNWYQQKPGEPPKLLISEGNSLRPGVPSRFSSSGYGTDFVFTIENTLSEDVADYYCLQFNNMPLTFGAGTKLELK

EC50 [7]: 0.816 µg/mL
IC50 [3]: 0.92 µg/mL
B5: chi-21 (antibody, V domains shown)
VH: QVQLQQPGAELVKPGASVKMSCKASGYTFTSYNMLWVKQTPGQGLEWIGVIFPGNGDTSYNPKFKGKAALTADKSSSTAYMQLSSLTSEDSAVYYCARDGYPSMDYWGQGTSVTVSS
VL: QIVLTQSPVIMSASPGEKVTMTCSASSSVSYMYWYQQKPGSSPRLLIYDTSNLASGVPVRFSGSGSGTSYSLTISRMEAEDAATYYCQQWSSYPPALTFGAGTKLELK

binding result [2]: binds
EC50 [8]: 0.0244 µg/mL
EC50 [7]: 0.0238 µg/mL
IC50 [9]: 0.258 µg/mL
IC50 [3]: 0.0992 µg/mL
B6: chimeric antibody chi-15 (antibody, human IgG4 S228P, kappa, V domains shown)
VH: B5 VH
VL: ETIVTQSPASLSVATGEKVTIRCITSTDIDDDMNWYQQKPGEPPKLLISEGNSLRPGVPSRFSSSGYGTDFVFTIENTLSEDVADYYCLQFNNMPLTFGAGTKLELKR
notes: hIgG4 heavy constant region and human kappa constant region; also called No. 3 chimeric antibody molecule

relative binding activity for human DKK1 (ELISA) (human DKK1 [5]): superior activity
in vitro activity in the screening of the chimeric antibodies of Example 4 (human DKK1 [6]): best in vitro activity
B7: chi-1: chimeric antibody 1VH+1VL (SEQ ID NO: 37/38) (antibody, V domains shown)
VH: MGWSWIFLFLLSGTAGVLSEVQLQQSGPELVKPGASVRISCKTSGYTFTEYTMHWVKQSHGKSLEWIGVIDPSNGDTSYNQKFKGRATLTVDKSSSTAYMDLRSLTSEDSALYYCSSTTGPWFACWGQGTLVTVSA
VL: MSSAQFLGLLLLCFQGTRCDIQMTQTTSSLSASLGDRVTINCRASQDISNYLNWYQQKPDGTVKLLIYYKSRLHSGVPTRFSGSGSGTDFSLTISNLVQEDIATYFCQQVHTLPPTFGGGTKLEIK
